Reference: paper PMC10641220, “Pseudomonas aeruginosa AlgF is a protein–protein interaction mediator required for acetylation of the alginate exopolysaccharide” (The Journal of Biological Chemistry, 2023)

Columns and labels:
AlgJPp^75-370 = target: T1, AlgJPp^75-370 (Pseudomonas putida, UniProt Q88ND3 75-370); assay: ITC; MicroCal Auto-ITC200, 20 °C, 50 mM Tris pH 7.8, 150 mM NaCl, 2% glycerol, 50 mM arginine, 50 mM glutamic acid; 1.86 mM AlgJ (syringe) into 188 μM AlgF (cell); 4.17 mM AlgF (syringe) into 500 μM AlgX (cell); 2.97 mM AlgJ (syringe) into 170 μM AlgX (cell); conditions: both partners purified
T1 construct: AlgJ of Pseudomonas putida, residues 75-370
T1 sequence (looked up): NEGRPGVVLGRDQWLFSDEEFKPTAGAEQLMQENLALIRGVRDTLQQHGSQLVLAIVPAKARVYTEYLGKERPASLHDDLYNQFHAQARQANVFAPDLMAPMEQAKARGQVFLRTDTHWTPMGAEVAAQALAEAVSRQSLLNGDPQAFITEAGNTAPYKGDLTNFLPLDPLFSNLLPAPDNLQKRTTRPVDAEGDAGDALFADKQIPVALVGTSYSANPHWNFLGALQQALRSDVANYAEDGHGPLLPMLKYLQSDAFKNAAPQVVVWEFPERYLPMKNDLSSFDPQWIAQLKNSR

AlgXPp = target: T2, AlgXPp (Pseudomonas putida KT2440, UniProt Q88ND0 25-479); assay: as above; conditions: both partners purified
T2 construct: AlgX of Pseudomonas putida KT2440, codon-optimized synthetic gene of full-length AlgXPp in pET24b; AlgX is a periplasmic protein
T2 sequence (looked up): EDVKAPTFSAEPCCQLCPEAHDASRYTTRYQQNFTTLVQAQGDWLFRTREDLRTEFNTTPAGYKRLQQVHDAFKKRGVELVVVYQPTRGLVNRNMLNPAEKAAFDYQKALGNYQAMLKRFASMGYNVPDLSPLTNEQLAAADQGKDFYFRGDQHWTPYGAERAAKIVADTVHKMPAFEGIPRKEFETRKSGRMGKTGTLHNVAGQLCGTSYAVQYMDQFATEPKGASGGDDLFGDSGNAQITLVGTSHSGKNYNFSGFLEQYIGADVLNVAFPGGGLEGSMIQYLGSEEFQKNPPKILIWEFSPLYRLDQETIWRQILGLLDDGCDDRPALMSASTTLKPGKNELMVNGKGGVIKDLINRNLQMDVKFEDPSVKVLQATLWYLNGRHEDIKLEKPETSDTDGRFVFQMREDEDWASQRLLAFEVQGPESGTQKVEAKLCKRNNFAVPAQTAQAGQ

B1: AlgFPp^29-215 (domain or fragment, Pseudomonas putida KT2440, UniProt Q88ND4 29-215, looked up)
chain: DAALYGPSAPKGSTFVRLYNATSAPAAASVGNTQIKQVGAQASSDFSFLPGGDYTAQVGGKSVPVKLASDKYYTLVNSNSGSPKLIEEPPFKNKQKALVRVQNLSDQQLTLKTADGKTEVVKPVAANGRGEREINPVKVNLALYQGDKKVGDVKPVALERGEAAVLYVTGSGNALSPVWVTRPVASN
notes: the results text calls the construct 30-215; Cloned in pET28a with a 3' stop codon; also called AlgFPp^30-215; source: E. coli BL21 CodonPlus (λDE3), purified (Ni-NTA, Superdex 200 SEC)
Which results are given for B1?
Kd (AlgJPp^75-370): 86 ± 12 µM; Kd (AlgXPp): 178 ± 5 µM
